Reference: the supplement of paper PMC6757056
± gives the standard deviation of the averaged measurements.

B1: library; a variant is named by its letters at N, in order (parent)
chain: GCUGUCACCGGUGUAUUACCCUAGUGGUCGACCGGUCUGAUGAGUCUNNNNNNAGACGAAACAGC

Experiments:
hypoxanthine [1] = variants of: B1; assay: FACS-Seq fitted mean relative fluorescence mCherry/BFP without ligand (log10 relative fluorescence); ligand: hypoxanthine (xanthine aptamer); higher = higher reporter protein expression; details: HEK293T, ligand present: no
In short: (§1)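 Reporter cells were enriched HEK293T libraries transduced by lentivirus with mCherry behind the ribozyme switch and with an EF1α-BFP marker. Following 48 h with or without ligand, they were sorted into 6 mCherry/BFP bins, and bin genomic DNA was PCR-amplified, barcoded and MiSeq-sequenced. Fluorescence was computed as the fitted normal mean of the bin counts. The fit used log10(mCherry/BFP), with scaling to five spiked-in control ribozymes.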

hypoxanthine [2] = variants of: B1; assay: normalized RNA/DNA level with ligand (relative to sTRSVctl = 100) (log10 (% of sTRSVctl)); ligand: hypoxanthine (xanthine aptamer); higher = less ribozyme self-cleavage, higher mRNA level; details: ligand concentration (+) RNA-Seq: 5 mM, HEK293T, reporter: mCherry (pCS4076), ligand present: yes
Procedure: (§2)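 Hammerhead (sTRSV) ribozyme switch libraries with a ligand aptamer grafted on stem I and a randomized N4-6 loop II, cloned into the 3' UTR of mCherry and transiently transfected into HEK293T cells; RNA-Seq 72 h post transfection with ligand added 1 h before transfection; RNA read count / plasmid DNA read count normalized to the non-cleaving sTRSVctl (x100), log10; sequences with >100 DNA reads. FACS-Seq: lentiviral library sorted into 6 bins after 48 h ligand, log-normal fit mean of mCherry/BFP scaled to controls. Printed sequences are partial switch sequences.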

hypoxanthine [3] = variants of: B1; assay: normalized RNA/DNA level without ligand (relative to sTRSVctl = 100) (log10 (% of sTRSVctl)); ligand: hypoxanthine (xanthine aptamer); higher = less ribozyme self-cleavage, higher mRNA level; details: HEK293T, reporter: mCherry (pCS4076), ligand present: no
Procedure: as §2

hypoxanthine [4] = variants of: B1; assay: FACS-Seq fitted mean relative fluorescence mCherry/BFP with ligand (log10 relative fluorescence); ligand: hypoxanthine (xanthine aptamer); ligand concentration (+) FACS-Seq: 5 mM; higher = higher reporter protein expression; details: HEK293T, ligand present: yes
In short: as §1

| Variant | FACS-Seq fitted mean (log10) (hypoxanthine [1]) | normalized RNA/DNA level with ligand (log10) (hypoxanthine [2]) | normalized RNA/DNA level without ligand (log10) (hypoxanthine [3]) | FACS-Seq fitted mean (log10) (hypoxanthine [4]) |
| --- | --- | --- | --- | --- |
| AAGAGA | 0.1774 ± 0.00084 | 1.8 ± 0.047 | 1.25 ± 0.055 | 0.598 ± 0.033 |
| CAGCAU | 0.36 ± 0.085 | 1.947 ± 0.0067 | 1.71 ± 0.029 | 0.642 ± 0.028 |
| UACAGC | 0.821 ± 0.21 | 1.96 ± 0.019 | 1.898 ± 0.013 | 0.655 ± 0.12 |
| UACAGG | 0.231 ± 0.044 | 1.838 ± 0.014 | 1.41 ± 0.035 | 0.661 ± 0.032 |
| UACGCA | -0.76 ± 0.081 | 1.924 ± 0.0096 | 1.82 ± 0.019 | -0.297 ± 0.075 |
| CACCUU | -0.395 ± 0.03 | 1.97 ± 0.03 | 1.87 ± 0.044 | -0.0406 ± 0.045 |
| CACUGG | 0.504 ± 0.03 | 1.9 ± 0.019 | 1.43 ± 0.16 | 0.709 ± 0.016 |
| GACUGA | 0.742 ± 0.053 | 1.94 ± 0.072 | 1.763 ± 0.011 | 0.639 ± 0.17 |
| GACUGG | 0.157 ± 0.015 | 1.758 ± 0.0058 | 1.42 ± 0.045 | 0.6446 ± 0.0029 |
| AACGUC | 0.221 ± 0.029 | 2.01 ± 0.052 | 1.949 ± 0.0078 | 0.255 ± 0.0059 |
| AACGUG | 0.285 ± 0.021 | 1.817 ± 0.013 | 1.3 ± 0.041 | 0.737 ± 0.012 |
| AACGUA | 0.494 ± 0.032 | 1.86 ± 0.058 | 1.702 ± 0.0047 | 0.516 ± 0.1 |
| CACAUA | 0.738 ± 0.084 | 1.91 ± 0.07 | 1.73 ± 0.047 | 0.656 ± 0.076 |
| UACGGC | 0.35 ± 0.0036 | 1.95 ± 0.0066 | 1.795 ± 0.0028 | 0.542 ± 0.1 |
| UACGGG | 0.0501 ± 0.0033 | 1.928 ± 0.0024 | 1.509 ± 0.013 | 0.553 ± 0.062 |
| UACGGA | 0.543 ± 0.045 | 1.927 ± 0.0098 | 1.59 ± 0.03 | 0.703 ± 0.039 |
| GACGUU | 0.455 ± 0.066 | 1.9 ± 0.044 | 1.853 ± 0.0023 | 0.575 ± 0.066 |
| AACGAC | 0.305 ± 0.007 | 1.94 ± 0.02 | 1.79 ± 0.028 | 0.279 ± 0.064 |

| Variant | FACS-Seq fitted mean (log10) (hypoxanthine [1]) | normalized RNA/DNA level with ligand (log10) (hypoxanthine [2]) | normalized RNA/DNA level without ligand (log10) (hypoxanthine [3]) | FACS-Seq fitted mean (log10) (hypoxanthine [4]) |
| --- | --- | --- | --- | --- |
| AACGAG | 0.131 ± 0.0019 | 1.75 ± 0.031 | 1.22 ± 0.062 | 0.553 ± 0.084 |
| AACGAA | -0.1232 ± 0.00029 | 1.88 ± 0.068 | 1.67 ± 0.042 | -0.425 ± 0.21 |
| CACUAA | 0.376 ± 0.014 | 1.8618 ± 0.00057 | 1.74 ± 0.025 | 0.456 ± 0.0093 |
| CACGUA | 0.4515 ± 0.0024 | 1.9 ± 0.016 | 1.784 ± 0.0067 | 0.594 ± 0.022 |
| GACCGU | 0.658 ± 0.04 | 1.933 ± 0.0015 | 1.91 ± 0.0056 | 0.698 ± 0.013 |
| GACGAU | 0.412 ± 0.021 | 1.91 ± 0.027 | 1.75 ± 0.023 | 0.672 ± 0.053 |
| GACGAG | 0.184 ± 0.028 | 1.76 ± 0.056 | 1.31 ± 0.017 | 0.597 ± 0.026 |
| GACGAC | -0.384 ± 0.063 | 1.9292 ± 0.0013 | 1.67 ± 0.017 | -0.465 ± 0.092 |
| GACGAA | 0.408 ± 0.047 | 1.9 ± 0.056 | 1.7 ± 0.0095 | 0.566 ± 0.012 |
| UAGCAA | 0.0307 ± 0.043 | 1.9 ± 0.026 | 1.739 ± 0.0055 | 0.155 ± 0.024 |
| UAGCAG | 0.215 ± 0.033 | 1.87 ± 0.02 | 1.61 ± 0.038 | 0.507 ± 0.05 |
| CACGGU | 0.663 ± 0.025 | 1.869 ± 0.0027 | 1.758 ± 0.0045 | 0.669 ± 0.15 |
| CACUUC | -0.745 ± 0.014 | 1.884 ± 0.015 | 1.93 ± 0.066 | -0.484 ± 0.033 |
| CACUUU | 0.525 ± 0.016 | 1.89 ± 0.036 | 1.847 ± 0.0042 | 0.491 ± 0.011 |
| AAGACG | -0.0743 ± 0.0055 | 1.67 ± 0.077 | 1.17 ± 0.027 | 0.587 ± 0.028 |
| AAGACC | 0.483 ± 0.015 | 1.94 ± 0.029 | 1.9 ± 0.027 | 0.305 ± 0.21 |
| AAGACA | 0.332 ± 0.067 | 1.93 ± 0.067 | 1.675 ± 0.012 | 0.559 ± 0.0087 |
| UACUGU | 0.399 ± 0.032 | 1.95 ± 0.066 | 1.67 ± 0.011 | 0.638 ± 0.036 |
